The record followed here is patent US20220324934A1 (Stanford University, published 2022).

The chains are these.
B1: in silico designed IL-2 variant SEQ ID NO: 4, MSA fusion protein (ligand, not shown: large carriers; small tags and cut ends)
chain: APTSSSTKKTQLQLEHLLLDLQMILNMLNNYDNPKLTRLLTFKFYMPKKATSLKHLQCLEEELKPLEEALNQAGDDPKTIRDLISNINVIVLELKGSETTFMCEYADETATIIEFLNRWITFCQSIISTLT
B2: in silico designed IL-2 variant SEQ ID NO: 11, MSA fusion protein (ligand, not shown: large carriers; small tags and cut ends)
chain: B1 chain with D32S, Q72L, G74S, P77Q, K78D, T79K, I80V, L83V, I84V, I90F
B3: in silico designed IL-2 variant SEQ ID NO: 9, MSA fusion protein (ligand, not shown: large carriers; small tags and cut ends)
chain: B1 chain with G74D, D75S, D76T, P77D, K78S, T79R
B4: in silico designed IL-2 variant SEQ ID NO: 3, MSA fusion protein (ligand, not shown: large carriers; small tags and cut ends)
chain: B1 chain with Q72A
B5: in silico designed IL-2 variant SEQ ID NO: 5, MSA fusion protein (ligand, not shown: large carriers; small tags and cut ends)
chain: B1 chain with Q72D
B6: in silico designed IL-2 variant SEQ ID NO: 2, MSA fusion protein (ligand, not shown: large carriers; small tags and cut ends)
chain: B1 chain with S52E, Q72A
B7: in silico designed IL-2 variant SEQ ID NO: 6, MSA fusion protein (ligand, not shown: large carriers; small tags and cut ends)
chain: B1 chain with D32E, L39M
B8: in silico designed IL-2 variant SEQ ID NO: 13, MSA fusion protein (ligand, not shown: large carriers; small tags and cut ends)
chain: B1 chain with Y31A, D32S, K35S, L39M, S52E, Q72T, G74A, P77Q, K78D, T79K
B9: in silico designed IL-2 variant SEQ ID NO: 8, MSA fusion protein (ligand, not shown: large carriers; small tags and cut ends)
chain: B1 chain with Q72A, G74D, D75S, D76T, P77D, K78E, T79R, L83V, I84V, I90F
B10: in silico designed IL-2 variant SEQ ID NO: 10, MSA fusion protein (ligand)
chain: B1 chain with G74S, D75K, P77Q, T79K, I80V, L83V, I84V, I90F
notes: not shown: mouse serum albumin (MSA), fusion partner
B11: in silico designed IL-2 variant SEQ ID NO: 7, MSA fusion protein (ligand, not shown: large carriers; small tags and cut ends)
chain: B1 chain with L39M, S52E, G74D, D75S, D76T, P77D, K78E, I80V
B12: in silico designed IL-2 variant SEQ ID NO: 1, MSA fusion protein (ligand, not shown: large carriers; small tags and cut ends)
chain: B1 chain with Q72A, L83V, I84V, I90F
B13: in silico designed IL-2 variant SEQ ID NO: 12, MSA fusion protein (ligand, not shown: large carriers; small tags and cut ends)
chain: B1 chain with L39M, S52E, Q72H, G74A, P77K, K78D
B14: Super-2 (H9) IL-2 variant, expressed as MSA fusion protein (ligand, not shown: large carriers; small tags and cut ends)
chain: APTSSSTKKTQLQLEHLLLDLQMILNGINNYKNPKLTRMLTFKFYMPKKATELKHLQCLEEELKPLEEVLNLAQSKNFHFDPRDVVSNINVFVLELKGSETTFMCEYADETATIVEFLNRWITFCQSIISTLT
notes: also called H9 super-2; MSA-H9-super-2
B15: in silico designed IL-2 variant SEQ ID NO: 15, MSA fusion protein (ligand, not shown: large carriers; small tags and cut ends)
chain: B14 chain with G27M, I28L, K32D, V69A, L72Q, F80L, V85L, V86I, F92I, V115I
B16: in silico designed IL-2 variant SEQ ID NO: 17, MSA fusion protein (ligand, not shown: large carriers; small tags and cut ends)
chain: APTSSSTKKTQLQLEHLLLDLQMILNMLNNYDNPKLTRLLTFKFYMPKKATSLKHLQCLEEELKPLEEALNLAQSKNFHLDPRDLISNINVIVLELKGSETTFMCEYADETATIIEFLNRWITFCQSIISTLT
B17: in silico designed IL-2 variant SEQ ID NO: 16, MSA fusion protein (ligand, not shown: large carriers; small tags and cut ends)
chain: B16 chain with L72Q
B18: in silico designed IL-2 variant SEQ ID NO: 14, MSA fusion protein (ligand, not shown: large carriers; small tags and cut ends)
chain: B16 chain with L39M, S52E

Numbering of substitutions follows the chain as printed.

The first assay has as its target T1, IL-2Rβ (UniProt P14784 27-240, limits assumed, biotinylated (site not stated)).
T1 construct: also called CD122; IL-2Rbeta
T1 sequence (looked up): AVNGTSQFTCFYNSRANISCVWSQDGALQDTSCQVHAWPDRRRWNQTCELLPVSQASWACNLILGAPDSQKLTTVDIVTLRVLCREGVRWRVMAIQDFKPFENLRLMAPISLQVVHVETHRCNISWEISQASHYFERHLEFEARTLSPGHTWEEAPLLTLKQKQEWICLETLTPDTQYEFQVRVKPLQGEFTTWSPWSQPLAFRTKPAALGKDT
Nature of the assay: SPR Biacore T100, kinetic fit; biotinylated IL-2Rβ on chip. The procedure:
(§1) To perform the surface plasmon resonance (SPR) analysis, the test variant protein was made in Expi293 as described previously. […] Experiments were performed on a BlAcore® T100 (GE Healthcare, Piscataway, N.J.).
For orientation: In SPR one partner is held on a chip, and binding of the other changes the refractive index at the surface.
Molecule B1 yielded a Kd of 339 nM and a koff of 0.05 s⁻¹.
The molecule B2 showed an equilibrium dissociation constant (Kd) of 8.7 nM and a koff of 0.0036 s⁻¹.
The corresponding values for B3 are 330 nM and 0.12 s⁻¹.
The corresponding values for B4 are 282 nM and 0.042 s⁻¹.
Molecule B5 yielded a Kd of 292 nM and a koff of 0.047 s⁻¹.
B6 registered a Kd of 332 nM and a koff of 0.055 s⁻¹.
Take B7: the Kd is 315 nM and the koff amounted to 0.046 s⁻¹.
The corresponding values for B8 are 174 nM and 0.036 s⁻¹.
The corresponding values for B9 are 5.9 nM and 0.0044 s⁻¹.
The molecule B10 had a Kd of 105 nM and an off-rate constant (koff) of 0.015 s⁻¹.
B11 gave a Kd of 56.7 nM and a koff of 0.0026 s⁻¹.
The like results for B12 were, in that order, 25 nM and 0.0066 s⁻¹.
The like results for B13 were, in that order, 51.2 nM and 0.023 s⁻¹.
The like results for B14 were, in that order, 2.1 nM and 0.0015 s⁻¹.
With B15, the Kd was determined as 227 nM and the off-rate constant (koff) turned out to be 0.064 s⁻¹.
B16 returned a Kd of 241 nM and a koff of 0.091 s⁻¹.
The corresponding values for B17 are 221 nM and 0.071 s⁻¹.
As to B18, the affinity, expressed as Kd, was 171 nM and the koff was determined as 0.072 s⁻¹.

The next assay deals with T1, IL-2Rβ. Nature of the assay: SPR Biacore T100, steady-state; biotinylated IL-2Rβ on chip. The procedure:
as §1
As for B1, binding was put at a Kd of 389 nM.
The same measure, in the same setting: with B2 the figure was 22.7 nM; with B3, 378 nM; with B4, 366 nM.
Regarding B5, binding was put at a Kd of 362 nM.
Same read-out and setting: with B6 the figure was 411 nM.
Still for that read-out and setting: with B7 the figure was 398 nM; with B8, 207 nM; with B9, 14.2 nM.
B10 returned a Kd of 137 nM.
For B11, the Kd amounted to 85.4 nM.
In the case of B12, binding was characterised by a dissociation constant (Kd) of 61.3 nM.
In turn, B13 gave a dissociation constant (Kd) of 67.6 nM.
Still for that read-out and setting: with B14 the figure was 16.2 nM.
In turn, B15 registered a Kd of 498 nM.
For B16, the Kd was 268 nM.
Same read-out and setting: to B17 belongs 290 nM; to B18, 196 nM.

A word on the Kd: it is the equilibrium constant for the complex coming apart. As usually defined, the koff is the rate constant with which the complex falls apart. Read a high koff as a short-lived complex.
